Experimental data published in PMC9427789.
Residue numbers refer to the chain shown, from its start. Numbers in names are those of the source.

B1: mouse FGF23 (wild type), Q9EPC2 Q117H; A159S (protein)
chain: YPDTSPLLGSNWGSLTHLYTATARTSYHLQIHRDGHVDGTPHQTIYSALMITSEDAGSVVITGAMTRRFLCMDLHGNIFGSLHFSPENCKFRHWTLENGYDVYLSQKHHYLVSLGRAKRIFQPGTNPPPFSQFLSRRNEVPLLHFYTVRPRRHTRSAEDPPERDPLNVLKPRPRATPVPVSCSRELPSAEEGGPAASDPLGVLRRGRGDARGGAGGADRCRPFPRFV
B2: mouse FGF23 (wild type), Q9EPC2 T49N; Q117H; A159S (protein)
chain: B1 chain with T25N
B3: mouse FGF23 (wild type), Q9EPC2 T49N; T76R; Q117H; A159S (protein)
chain: B1 chain with T25N, T52R
B4: mouse FGF23 (wild type), Q9EPC2 T76R (protein)
chain: YPDTSPLLGSNWGSLTHLYTATARTSYHLQIHRDGHVDGTPHQTIYSALMIRSEDAGSVVITGAMTRRFLCMDLHGNIFGSLHFSPENCKFRQWTLENGYDVYLSQKHHYLVSLGRAKRIFQPGTNPPPFSQFLARRNEVPLLHFYTVRPRRHTR
B5: mouse FGF23 (wild type), Q9EPC2 Q117H (protein)
chain: B4 chain with R52T, Q93H
B6: mouse FGF23 (wild type), Q9EPC2 A159S (protein)
chain: B4 chain with R52T, A135S
B7: mouse FGF23 (wild type), Q9EPC2 T49N (protein)
chain: B4 chain with T25N, R52T
B8: His-SUMO-FGF23 (N-terminal domain of human FGF23, wild type), Q9GZV9 R48A (protein)
chain: YPNASPLLGSSWGGLIHLYTATAANSYHLQIHKNGHVDGAPHQTIYSALMIRSEDAGFVVITGVMSRRYLCMDFRGNIFGSHYFDPENCRFQHQTLENGYDVYHSPQYHFLVSLGRAKRAFLPGMNPPPYSQFLSRRNEIPLIHFNTPIPRRHTRSAEDDSERDPLNVLKPRARMTPAPA
B9: His-SUMO-FGF23 (N-terminal domain of human FGF23, wild type), Q9GZV9 Y70A (protein)
chain: B8 chain with A24R, Y46A
B10: His-SUMO-FGF23 (N-terminal domain of human FGF23, wild type), Q9GZV9 F108A (protein)
chain: B8 chain with A24R, F84A
B11: His-SUMO-FGF23 (N-terminal domain of human FGF23, wild type), Q9GZV9 F82A (protein)
chain: B8 chain with A24R, F58A
B12: His-SUMO-FGF23 (N-terminal domain of human FGF23, wild type), Q9GZV9 H52A (protein)
chain: B8 chain with A24R, H28A
B13: His-SUMO-FGF23 (N-terminal domain of human FGF23, wild type), Q9GZV9 E121A (protein)
chain: B8 chain with A24R, E97A
B14: His-SUMO-FGF23 (N-terminal domain of human FGF23, wild type), Q9GZV9 R76A (protein)
chain: B8 chain with A24R, R52A
B15: His-SUMO-FGF23 (N-terminal domain of human FGF23, wild type), Q9GZV9 Y107A (protein)
chain: B8 chain with A24R, Y83A
B16: His-SUMO-FGF23 (N-terminal domain of human FGF23, wild type), Q9GZV9 R99A (protein)
chain: B8 chain with A24R, R75A
B17: His-SUMO-FGF23 (N-terminal domain of human FGF23, wild type), Q9GZV9 H133A (protein)
chain: B8 chain with A24R, H109A
B18: His-SUMO-FGF23 (N-terminal domain of human FGF23, wild type), Q9GZV9 Y43A (protein)
chain: B8 chain with Y19A, A24R
B19: Burosumab (wild type) (antibody, V domains shown)
VH: QVQLVQSGAEVKKPGASVKVSCKASGYTFTNHYMHWVRQAPGQGLEWMGIINPISGSTSNAQKFQGRVTMTRDTSTSTVYMELSSLRSEDTAVYYCARDIVDAFDFWGQGTMVTVSS
VL: AIQLTQSPSSLSASVGDRVTITCRASQGISSALVWYQQKPGKAPKLLIYDASSLESGVPSRFSGSGSGTDFTLTISSLQPEDFATYYCQQFNDYFTFGPGTKVDIK

The binders below were run against Burosumab (wild type) (assay: indirect ELISA). Conditions: chain shown with the change; level of the fitted curve at the highest mAb concentration, log [µg/mL] = 0.5; parent: est. 0.57; read off a plot.

Row | response [A450] | Binder
1 | 0.8 | B1
2 | 0.98 | B2
3 | 0.9 | B3
4 | 0.78 | B4
5 | 0.78 | B5
6 | 0.4 | B6
7 | 0.59 | B7

Same assay, conditions: chain shown with the change;; read off a plot

Row | ratio to parent | Binder
8 | 1 | B8
9 | 1.8 | B9
10 | 6.2 | B10
11 | 1.1 | B11
12 | 9 | B12
13 | 1 | B13
14 | 8.2 | B14
15 | 1.4 | B15
16 | 1.4 | B16
17 | 2.2 | B17
18 | 1.7 | B18

These binders were tested against alanine substitution at H52, R76, F108 residues of FGF23 (three single mutants, as a group) (human) (assay: ELISA; indirect ELISA: FGF23 or its mutants coated at 2 µg/mL on Maxisorp plates (4 °C overnight), Burosumab or its variants three-fold serially diluted in PBS from 9 µg/mL, room temperature 2 h, anti-human IgG H&L-HRP, A450; fold change from Kd values against the wild type). Conditions: not given.

Row | fold decrease in binding against wild-type FGF23 [fold] | Binder
19 | 7 to 10 | B19
